Entries after “also recorded” stand apart in the source; their conditions may differ.
How the values were obtained:
[1] = test system: MDA-MB-231 cells; settings: mouse, in vivo
Method: The dosing regimen was initiated when the mean tumor volume of all study animals reached 50-100 mm^3.
Treatment Regimen. Twenty (20) NSG mice (Jackson Laboratory, female, 5-6 wks old) were used in this study. The animals were assigned to two study groups of 10 mice randomly. The MDA-MB-231 cell line was prepared for injection as described in the Materials and Methods.
1.25×10^6 cancer cells in PBS with 20% matrigel were injected orthotopically into the mammary fat pad. The day on which the tumor was implanted is designated as Day 0.

[2] = test system: neo-lymphangiogenesis of the cornea; test: Corneal alkali-burn injury model of neovascularization (LYVE-1 staining); type: in vivo, mouse; settings: IP on Day 0, 3, 7 and 10; Day 14; compared to IgG control; p=0.07
Method: Study Design & Treatment Regimen. The study consisted of 40 female C57BL/6 mice separated into four groups. Prior to study, animals were randomized into four groups, 10 mice per group. On Day 0, neovascularization (NV) of the cornea was induced from alkali-burn injury in the eyes of animals under anesthesia. Animals were treated intraperitoneally with control IgG (Group 1), aNRP2-28 (Group 2) and Bevacizumab (Group 3) on post-injury Day 0, 3, 7 and 10. During the in-life phase, animals were monitored with daily clinical observations and weekly body weights. Additionally, ocular assessments of injured eyes were scored and photos taken on post-injury Day 7 and Day 14. All animals were euthanized on Day 14. Injured eyes from all animals were removed and dissected. Whole-mounted corneas were fixed, stained with LYVE-1, and analyzed immunohistochemically to examine the efficacy of Test Articles.

[3] = test system: B16-F10 tumors; test: B16-F10 mouse melanoma in C57BL/6 mice; type: in vivo
Method: Animals and Animal husbandry. All mice were ear tagged for identification purpose. Upon arrival, animals were examined to ensure that they were healthy. The animals were housed in autoclaved solid floor polycarbonate cages. Housing and sanitation were performed according to industry standards. All animal handling was performed in a laminar flow hood located in a clean room. In all experiments, euthanasia criteria were set for an upper limit on subcutaneous tumor volume (usually >2,000 mm^3) and body weight loss (usually >20% body weight loss for an individual during the study). Animal work was performed at either Comparative Biosciences, Inc., 786 Lucerne Dr., Sunnyvale, CA 94085 or at aTyr Pharma, 3545 John Hopkins Court, Suite 250, San Diego, CA 92121. The test antibody dosing regimen was initiated once the mean tumor volume reached 50-100 mm^3. Tumor measurements were recorded two times a week until study termination, as described below.
Tumor monitoring. Once palpable, sub-cutaneous tumors were measured three times a week with a digital caliper. Tumor volumes were calculated using formula: Tumor Volume=length×width×width×1/2
Statistical analysis. Data are expressed as mean±SEM o. In experiments in which animals were euthanized due to tumor burden or body weight loss, the terminal tumor volume was carried forward for statistical analysis. […] Significance of difference over time was tested with a 2-way repeated measures ANOVA followed by Dunnett's post-hoc test. Group comparisons were conducted using 1-way ANOVA (parametric or Kruskal Wallis, as noted in the figure legends). A p value <0.05 was considered significant.
Cell culture and implantation. Mouse B16-F10 cell line was purchased from ATCC.
Treatment Regimen. Thirty (30) C57BL/6 mice (Charles River, female, 6-8 wks old) were used in this study. The animals were assigned to 3 study groups of 10 mice randomly, and housed as described in the Materials and Methods. The antibody dosing regimen is shown in Table E4 below; in brief animals received intraperitoneal injections of the control IgG antibody, positive control antibody (Bevacizumab), and anti-NRP2 antibody (as described in the Materials and Methods), administered according to the protocol below (Table E4).

[4] = target: T1, Human NRP2 (aa23-855) (Homo sapiens, UniProt O60462); test: SPR binding affinity of anti-NRP2 antibodies to human NRP2 antigen; settings: KD = kd/ka, Langmuir (1:1) model
T1 construct: Human NRP2 (aa23-855)
T1 sequence (O60462 23-855 isoform O60462-3): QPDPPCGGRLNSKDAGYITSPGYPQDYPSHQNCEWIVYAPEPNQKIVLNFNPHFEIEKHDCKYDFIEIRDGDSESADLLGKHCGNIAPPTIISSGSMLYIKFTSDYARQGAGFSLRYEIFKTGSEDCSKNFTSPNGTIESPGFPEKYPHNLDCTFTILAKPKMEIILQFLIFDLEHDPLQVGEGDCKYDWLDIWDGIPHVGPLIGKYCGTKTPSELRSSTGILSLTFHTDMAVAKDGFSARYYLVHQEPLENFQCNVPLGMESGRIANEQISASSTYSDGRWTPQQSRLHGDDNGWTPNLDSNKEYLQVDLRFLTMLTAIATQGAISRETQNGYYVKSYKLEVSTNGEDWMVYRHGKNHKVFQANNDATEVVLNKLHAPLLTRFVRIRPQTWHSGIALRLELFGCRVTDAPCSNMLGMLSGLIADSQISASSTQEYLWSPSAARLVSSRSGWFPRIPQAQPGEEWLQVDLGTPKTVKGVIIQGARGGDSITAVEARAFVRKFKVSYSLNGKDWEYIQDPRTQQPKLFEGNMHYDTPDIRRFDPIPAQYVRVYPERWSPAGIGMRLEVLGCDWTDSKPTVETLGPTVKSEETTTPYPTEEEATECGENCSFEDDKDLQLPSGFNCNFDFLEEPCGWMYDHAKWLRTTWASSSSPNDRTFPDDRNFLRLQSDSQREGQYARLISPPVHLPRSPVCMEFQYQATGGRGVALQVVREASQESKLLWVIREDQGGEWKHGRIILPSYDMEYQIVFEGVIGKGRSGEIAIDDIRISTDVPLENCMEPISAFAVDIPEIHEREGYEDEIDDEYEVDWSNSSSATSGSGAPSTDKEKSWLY
Method: Anti-NRP2 antibody binding and affinity measurements. […] SPR experiments were conducted on a Bio-Rad ProteOn XPR36 Protein Interaction Array instrument. Biotinylated anti-human antibody (ThermoFisher Cat #7103302100) was immobilized on ProteOn NLC sensor chips. Anti-NRP2 antibodies were subsequently flowed over and captured by the anti-human antibody. Human NRP2 antigen protein was flowed over the captured antibody at varying concentrations (150, 50, 16.67, 5.56, 1.85 nM). The sensor chip surface was regenerated between each analyte run to remove anti-NRP2 antibodies and NRP2 protein. Data was double referenced against a surface with no anti-NRP2 antibody captured (immobilized anti-human antibody only) and a buffer only blank. Affinity constants were derived by globally fitting sensograms to a Langmuir (1:1) interaction model in the ProteOn manager software. For each anti-NRP2 antibody, data from the multiple NRP2 concentrations was fit as a single data set with dissociation rate constant (kd), association rate constant (ka) and Rmax values as global parameters. The reported binding affinity is the equilibrium dissociation constant (KD) calculated from kd/ka. • Running buffer: 50 mM HEPES, 300 mM NaCl, 5 mM CaCl2), 0.005% Tween-20, pH 7.4 • Immobilized antibody: CaptureSelect Human Fab-kappa Kinetics Biotin Conjugate, ThermoFisher Cat #7103302100 • Antigen: Human NRP2 (aa23-855) with C-terminal Avi-, Myc- and His-tags • Regeneration buffer: 10 mM glycine pH 2.0

[5] = test system: 4T1 tumors; test: 4T1 model of spontaneous metastasis in Balb/c mice; type: in vivo
Method: The test antibody dosing regimen was initiated one day before cell injection and animal weights and tumor measurements were recorded three times a week until study termination.
Mouse 4T1 cell line was purchased from ATCC. […] 50,000 cancer cells in PBS were implanted subcutaneously into the right flank of each mouse.
Treatment Regimen. […] The animals were assigned to 3 study groups of 10 mice randomly, and housed as described in the Materials and Methods. The antibody dosing regimen is shown in Table E5 below; in brief animals received intraperitoneal injections of 10 mg/kg of the control IgG antibody, and aNRP2-28 (as described in the Materials and Methods), administered according to the protocol below (Table E5); starting one day before cancer cell implantation until termination on day 23).

[6] = target: T2, NRP2/FLT4(VEGFR3) (Homo sapiens, UniProt O60462); test: Split-luciferase receptor dimerization assay, NRP2/FLT4 with VEGF-C; type: cell-based; settings: antibody 100 nM; ligand induced dimerization
T2 construct: The complete extracellular domain and transmembrane helices of NRP2a (version 2), NRP2b (version 5); expressed in transfected cells; host or cells: Expi293, transient co-transfection
T2 sequence (O60462 23-859 isoform O60462-3 limits assumed): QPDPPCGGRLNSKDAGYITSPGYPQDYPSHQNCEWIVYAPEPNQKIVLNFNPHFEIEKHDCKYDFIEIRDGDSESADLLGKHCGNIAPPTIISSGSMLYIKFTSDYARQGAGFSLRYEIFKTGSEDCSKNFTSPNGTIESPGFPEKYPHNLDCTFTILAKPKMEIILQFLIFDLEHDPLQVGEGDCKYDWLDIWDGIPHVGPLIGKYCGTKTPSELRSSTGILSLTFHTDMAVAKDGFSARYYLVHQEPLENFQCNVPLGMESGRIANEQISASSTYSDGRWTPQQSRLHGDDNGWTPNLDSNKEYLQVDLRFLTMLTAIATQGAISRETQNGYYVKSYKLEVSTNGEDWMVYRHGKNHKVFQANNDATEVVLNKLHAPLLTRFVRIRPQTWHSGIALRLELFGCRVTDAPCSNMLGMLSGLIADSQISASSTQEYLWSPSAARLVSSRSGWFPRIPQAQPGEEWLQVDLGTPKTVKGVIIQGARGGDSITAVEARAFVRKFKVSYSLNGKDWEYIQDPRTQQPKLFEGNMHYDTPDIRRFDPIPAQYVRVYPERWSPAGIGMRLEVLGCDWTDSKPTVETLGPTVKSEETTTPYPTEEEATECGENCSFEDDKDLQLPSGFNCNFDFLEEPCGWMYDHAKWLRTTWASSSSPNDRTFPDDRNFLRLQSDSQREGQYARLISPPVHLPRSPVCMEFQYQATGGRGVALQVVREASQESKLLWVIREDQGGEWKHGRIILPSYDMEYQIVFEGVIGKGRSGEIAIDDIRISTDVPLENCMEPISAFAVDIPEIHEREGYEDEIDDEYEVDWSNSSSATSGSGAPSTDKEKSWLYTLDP
Method: (§1) To further extend the assessment of the biological activity of the anti-NRP2 antibodies, their activity was assessed in a receptor dimerization assay. In brief, vectors encoding a split luciferase pBiT1.1 and pBiT2.1 were obtained from Promega corporation (Madison, Wisconsin). The complete extracellular domain and transmembrane helices of NRP2a (version 2), NRP2b (version 5) (See table N1), FLT4 (VEGFR3), KDR (VEGFR2), and plexin A1 (PLXNA1) were cloned into the vectors and screened for optimal orientation, receptor density, and ligand induced dimerization, following established methods. Expi293 cells (Fisher) were transfected at 1 million cells/mL ˜20 hours prior to the assay with NRP2 and a co-receptor at equal mass amounts. Cells were counted, and 100,000 live cells were plated in a well of a white luminometer plate in Live Cell Imaging Solution (Fisher). Nano-Glo assay substrate (Promega) was added, and the plate was read on a Glomax 96 luminometer at room temperature to establish baseline luminescence. Antibodies were added to the well at 100 nM and the plate was again read to establish a new baseline and monitor the effects of the antibodies on spontaneous receptor dimerization. Depending on the receptor pair, typically 200 nM SEMA3F-p95 (aTyr Pharma), 2 nM VEGF-C(R&D Systems, Minnesota), or 2 nM VEGF165 (R&D Systems, Minnesota) were then added and the plate was again read to measure dimerization of receptors. Normalized responses for each individual well were calculated to the time point prior to addition of ligand, then normalized to no-antibody/no-ligand (baseline signal). Replicates were then processed to give average response and standard deviation. Results are summarized in Table E3 below, and shown graphically in FIGS. 3-10.

[7] = test system: NRP2/PLXNA1; test: Split-luciferase receptor dimerization assay, NRP2/PLXNA1 with SEMA3F; type: cell-based, human; settings: antibody 100 nM; ligand induced dimerization
Method: as §1

Molecule | body weight [1] | neo-lymphangiogenesis, % Lyve-1+ area of cornea [2] | terminal tumor weights ([3]; 25 mg/kg IP BIW) | toxicity from animal body weight measurements and observations ([3]; 25 mg/kg IP BIW) | tumor growth (tumor volume) ([3]; 25 mg/kg IP BIW, compared to IgG control group, p<0.05 on Day 14, 16 and 19) | anti-tumor activity relative to Bevacizumab (positive control) ([3]; aNRP2-28 25 mg/kg vs Bevacizumab 5 mg/kg, IP BIW) | Kd [4] | toxicity from animal body weight measurements and observations ([5]; 10 mg/kg IP) | metastatic nodules in the lung at termination ([5]; 10 mg/kg IP days -1 to 23, compared to IgG control, p≤0.05) | effect on NRP2-VEGFR3 (FLT4) heterodimerization (in words) [6] | effect on NRP2-plexin heterodimerization (in words) [7]
N.N.[Cl][Pt][Cl] [cisplatin, Cisplatin] | significant loss in body weight | – | – | – | – | – | – | – | – | – | –
aNRP2-28v2/4: mouse surrogate VEGF blocking antibody recognizing mouse NRP2, functional surrogate for aNRP2-10v10; CDRs SEQ ID NOs: 63-68 (antibody, V domains shown) VH: QSVKESEGGLFKPTDTLTLTCTVSGFSLSTYSISWVRQAPGNGLEWIGIIGDAGGIIYATWAKSRSTITRSTALNTVTLKMTGLTAADTATYFCARDGTAFDIWGPGTLVTVSS VL: AYDMTQTPASVEVVVGGTVTIKCQASQSIYSKLGWYQQKPGQPPKLLIYRASTLASGVSSRFKGSGSGTEYTLTISGVQCDDAATYYCQQDYSYINVDNIFGGGTEVVVK | – | inhibits neo-lymphangiogenesis; also recorded: can inhibit neolymphangiogenesis | lowest terminal tumor weights | no evidence of toxicity | tumor growth inhibition | more potent anti-tumor activity | 0.0599 nM | no evidence of toxicity | reduction in metastatic nodules in the lung | – | –
aNRP2-14v9: humanized, affinity matured anti-NRP2 antibody, target domain a2; VH SEQ ID NO: 53, VL SEQ ID NO: 54 (antibody, V domains shown, Variable heavy chain region; Light chain variable region) VH: QLQLVESGGGVVQPGRSLRLSCTVSGFSLTSYGVHWVRQAPGKGLEWVGLIWSGGSTDYSPAFISRFTISEDNSKSTVYLQMNSLRAEDTAVYFCARNSYSSGYYAMDYWGQGTTVTVSS VL: DIQLTQSPSFLSASVGDRVTITCKASQNVGHAVAWYQQKPGKAPKLLIYSASNRYTGVPSRFSGSGSGTEFTLTISSLQPEDFATYYCQQYSRYPPYTFGGGTKVEIK | – | – | – | – | – | – | 0.15 nM | – | – | no significant impact | extremely potent inhibition

Reference: US12410253B2, “Compositions comprising anti-NRP2 antibodies” (aTyr Pharma, Inc., priority 2019, dated 2025)
